# Patent US20230265179A1 (TWIST BIOSCIENCE, published 2023)
# Substitutions are numbered along the chain they refer to.
# B1: TSLP-3 (VHH)
# VHH: EVQLVESGGGLVQPGGSLRLSCAASGRIFSTYFMGWFRQAPGKERELVSAIFSDGSTYYADSVKGRFTISADNSKNTAYLQMNSLKPEDTAVYYCALDLSTVRWGQGTLVTVSS
# notes: VHH-Fc (IgG2 Fc); not shown: IgG2 Fc of the VHH-Fc format
# B2: TSLP-23 (VHH)
# VHH: B1 VHH
# notes: as for B1
# B3: TSLP-35 (VHH)
# VHH: B1 VHH with R27C, L99W, S100N, T101L, V102N
# notes: as for B1
# B4: TSLP-14 (VHH)
# VHH: B1 VHH with R27S, T31S, F33W, L97K, L99Y, S100F, T101G, V102T, R103G
# notes: as for B1
# B5: TSLP-12 (VHH)
# VHH: B1 VHH with R27F, T31S, F33W, L97I, L99W, S100Y, T101L, V102N, R103S
# notes: as for B1
# B6: TSLP-9 (VHH)
# VHH: EVQLVESGGGLVQPGGSLRLSCAASGPMSSSAVMGWFRQAPGKEREAVALGWSGGSTYYADSVKGRFTISADNSKNTAYLQMNSLKPEDTAVYYCAIHTSREIWGQGTLVTVSS
# notes: as for B1
# B7: TSLP-30 (VHH)
# VHH: EVQLVESGGGLVQPGGSLRLSCAASGRTFSTYGMGWFRQAPGKEREFVAAMISWNGGSSTYYADSVKGRFTISADNSKNTAYLQMNSLKPEDTAVYYCTTDPAEFYDSSTYYPAPFDYWGQGTLVTVSS
# notes: as for B1
# B8: TSLP-4 (VHH)
# VHH: EVQLVESGGGLVQPGGSLRLSCAASGFTFSSYWMGWFRQAPGKERELVSAIFSDGSTMYADSVKGRFTISADNSKNTAYLQMNSLKPEDTAVYYCTRDSTDTRYWGQGTLVTVSS
# notes: as for B1
# B9: TSLP-24 (VHH)
# VHH: EVQLVESGGGLVQPGGSLRLSCAASGGIFSINDIGWFRQAPGKEREFVAALSWIIGSGVYTYYADSVKGRFTISADNSKNTAYLQMNSLKPEDTAVYYCANEYGWGQGTLVTVSS
# notes: as for B1
# B10: TSLP-120 (antibody, V domains shown)
# VH: QVQLVQSGAEVKKPGSSVKVSCKASGGTFSTYAISWVRQAPGQGLEWMGGIISINYAQKFQGRVTITADESTSTAYMELSSLRSEDTAVYYCAWGAKYALDSWGQGTLVTVSS
# VL: DIQMTQSPSSLSASVGDRVTITCRASQTIGTYLNWYQQKPGKAPKLLIYSASSLQSGVPSRFSGSGSGTDFTLTISSLQPEDFATYYCQQTDGNPPTFGQGTKVEIK
# B11: TSLP-32 (VHH)
# VHH: EVQLVESGGGLVQPGGSLRLSCAASGNSFNNYVMGWFRQAPGKEREMVSAIFSDGSTYYADSVKGRFTISADNSKNTAYLQMNSLKPEDTAVYYCVRDSGSVSGQTFDSWGQGTLVTVSS
# notes: as for B1
# B12: TSLP-10 (VHH)
# VHH: EVQLVESGGGLVQPGGSLRLSCAASGFTLDDYVMGWFRQAPGKEREGVATIAGGGTYYADSVKGRFTISADNSKNTAYLQMNSLKPEDTAVYYCASSGSYYPGHFEWGQGTLVTVSS
# notes: as for B1
# B13: TSLP-22 (VHH)
# VHH: EVQLVESGGGLVQPGGSLRLSCAASGRTFRSYVMGWFRQAPGKERELVSAIFSDGSTLYADSVKGRFTISADNSKNTAYLQMNSLKPEDTAVYYCAREDSSSGWFDYWGQGTLVTVSS
# notes: as for B1
# B14: TSLP-26 (VHH)
# VHH: B13 VHH with R27L, R30S, V33I, E98D, S100Y, S101G, S102G, G103N, W104F
# notes: as for B1
# B15: TSLP-36 (VHH)
# VHH: EVQLVESGGGLVQPGGSLRLSCAASGGTLDDYVMGWFRQAPGKEREFVGFIGSDGSTLYADSVKGRFTISADNSKNTAYLQMNSLKPEDTAVYYCTTEWDGYWGQGTLVTVSS
# notes: as for B1
# B16: TSLP-38 (VHH)
# VHH: EVQLVESGGGLVQPGGSLRLSCAASGFSLDYYAMGWFRQAPGKERELVSAIFSDGSALYADSVKGRFTISADNSKNTAYLQMNSLKPEDTAVYYCAKDRDTGIGAYDWGQGTLVTVSS
# notes: as for B1
# B17: TSLP-11 (VHH)
# VHH: EVQLVESGGGLVQPGGSLRLSCAASGFTFDDSDMGWFRQAPGKEREFVGAISWSGDSTYYKYYADSVKGRFTISADNSKNTAYLQMNSLKPEDTAVYYCANQYGWGQGTLVTVSS
# notes: as for B1
# B18: TSLP-6 (VHH)
# VHH: EVQLVESGGGLVQPGGSLRLSCAASGMTFSSYVMGWFRQAPGKEREFVGEIILSKGFTYYADSVKGRFTISADNSKNTAYLQMNSLKPEDTAVYYCASGPGYYDSSAYYLYAFDIWGQGTLVTVSS
# notes: as for B1
# B19: TSLP-18 (VHH)
# VHH: EVQLVESGGGLVQPGGSLRLSCAASGNIFTRNIMCWFRQAPGKEREGVSCISTGDGSTYYADSVKGRFTISADNSKNTAYLQMNSLKPEDTAVYYCAADSETSGNWVWGQGTLVTVSS
# notes: as for B1
# B20: TSLP-2 (VHH)
# VHH: EVQLVESGGGLVQPGGSLRLSCAASGLTFSTTVMGWFRQAPGKEREWVATIAGDGSTFYADSVKGRFTISADNSKNTAYLQMNSLKPEDTAVYYCADINEDWGQGTLVTVSS
# notes: as for B1
# B21: TSLP-121 (antibody, V domains shown)
# VH: QVQLVQSGAEVKKPGSSVKVSCKASGGSFSSYAISWVRQAPGQGLEWMGGIIPMNYAQKFQGRVTITADESTSTAYMELSSLRSEDTAVYYCARQLAAALVYWGQGTLVTVSS
# VL: EIVLTQSPGTLSLSPGERATLSCRASQNVNTRYLAWYQQKPGQAPRLLIYAASSRATGIPDRFSGSGSGTDFTLTISSLEPEDFAVYYCQQYESSPYNFGQGTKVEIK
# B22: TSLP-5 (VHH)
# VHH: EVQLVESGGGLVQPGGSLRLSCAASGVTLDTDAMGWFRQAPGKEREFVAWINNRGTTDYADSVKGRFTISADNSKNTAYLQMNSLKPEDTAVYYCARVSQWLLGGPANWGQGTLVTVSS
# notes: as for B1
# B23: TSLP-20 (VHH)
# VHH: EVQLVESGGGLVQPGGSLRLSCAASGFKLGYYAMGWFRQAPGKEREGVATIAGGTTYYADSVKGRFTISADNSKNTAYLQMNSLKPEDTAVYYCAAIGWRWGQGTLVTVSS
# notes: as for B1
# B24: TSLP-7 (VHH)
# VHH: EVQLVESGGGLVQPGGSLRLSCAASGLTFGTHVMGWFRQAPGKERELVTAINPAALTTYYADSVKGRFTISADNSKNTAYLQMNSLKPEDTAVYYCARDFWSAGDSWGQGTLVTVSS
# notes: as for B1
# B25: TSLP-41 (VHH)
# VHH: EVQLVESGGGLVQPGGSLRLSCAASGRTFSAHSVYTMGWFRQAPGKEREWVSAIFSDGDTYYADSVKGRFTISADNSKNTAYLQMNSLKPEDTAVYYCAIDEGMDYDGNFYDWGQGTLVTVSS
# notes: as for B1
# B26: TSLP-40 (VHH)
# VHH: EVQLVESGGGLVQPGGSLRLSCAASGLTFSRYAMGWFRQAPGKEREFVSAIFSDGSTYYADSVKGRFTISADNSKNTAYLQMNSLKPEDTAVYYCARGPNWFDPWGQGTLVTVSS
# notes: as for B1
# Target: T1, TSLP (UniProt Q969D9 29-159)
# T1 construct: Soluble analyte of the SPR assay
# Test: SPR, Carterra LSA, antibody amine-coupled, 1:1 model
# Experimental: SPR experiments were performed on a Carterra LSA SPR biosensor equipped with a HC30M chip at 25° C. in HBS-TE. Antibodies were diluted to 10 μg/mL and amine-coupled to the sensor chip by EDC/NHS activation, followed by ethanolamine HCl quenching. Increasing concentrations of analyte were flowed over the sensor chip in HBS-TE with 0.5 mg/mL BSA with 5-minute association and 15-minute dissociation. Following each injection cycle the surface was regenerated with 2× 30-second injections of IgG elution buffer (Thermo). Data were analyzed in Carterra's Kinetics Tool software with 1:1 binding model.
Binder,Kd,koff,kon
B1,19.1 nM,0.00114 s⁻¹,59900 M⁻¹ s⁻¹
B2,19.1 nM,0.00131 s⁻¹,68500 M⁻¹ s⁻¹
B3,20 nM,0.00145 s⁻¹,72600 M⁻¹ s⁻¹
B4,31.4 nM,0.0016 s⁻¹,51000 M⁻¹ s⁻¹
B5,13.9 nM,0.00137 s⁻¹,98700 M⁻¹ s⁻¹
B6,31 nM,0.00151 s⁻¹,48600 M⁻¹ s⁻¹
B7,63.2 nM,0.000996 s⁻¹,15800 M⁻¹ s⁻¹
B8,7.14 nM,0.000542 s⁻¹,75900 M⁻¹ s⁻¹
B9,10.2 nM,0.000445 s⁻¹,43600 M⁻¹ s⁻¹
B10,0.223 nM,0.000181 s⁻¹,809000 M⁻¹ s⁻¹
B11,7.24 nM,0.00121 s⁻¹,167000 M⁻¹ s⁻¹
B12,8.43 nM,0.000805 s⁻¹,95500 M⁻¹ s⁻¹
B13,12.1 nM,0.00106 s⁻¹,88200 M⁻¹ s⁻¹
B14,5.09 nM,0.000228 s⁻¹,44700 M⁻¹ s⁻¹
B15,3.39 nM,0.000487 s⁻¹,144000 M⁻¹ s⁻¹
B16,10.1 nM,0.000487 s⁻¹,48300 M⁻¹ s⁻¹
B17,9.67 nM,0.000433 s⁻¹,44700 M⁻¹ s⁻¹
B18,19.4 nM,0.000672 s⁻¹,34700 M⁻¹ s⁻¹
B19,22.3 nM,0.00178 s⁻¹,79700 M⁻¹ s⁻¹
B20,6.49 nM,0.0018 s⁻¹,278000 M⁻¹ s⁻¹
B21,2.96 nM,0.00175 s⁻¹,589000 M⁻¹ s⁻¹
B22,24.5 nM,0.000759 s⁻¹,31000 M⁻¹ s⁻¹
B23,27.7 nM,0.00209 s⁻¹,75300 M⁻¹ s⁻¹
B24,5.12 nM,0.000351 s⁻¹,68500 M⁻¹ s⁻¹
B25,10.8 nM,0.00177 s⁻¹,164000 M⁻¹ s⁻¹
B26,19.3 nM,0.000493 s⁻¹,25600 M⁻¹ s⁻¹

# Target: T2, TSLP on over-expressing Expi293 cells (UniProt Q969D9 29-159, limits assumed)
# T2 construct: whole, on cells; Target of the flow cytometry assay; also called cytokine over-expressing Expi293 cells
# Test: flow cytometry, 100 nM, TSLP over-expressing Expi293 over parent cells
# Experimental: (§1) All incubations and washes were in buffer containing PBS+1% BSA. MFI Ratio is defined by the mean fluorescence intensity (MFI) of the cytokine over-expressing Expi293 cell over the Expi293 parent cell. […] EC50 was calculated in GraphPad Prism.
row,Binder,100 nM (MFI Ratio)
1,B1,80.1 MFI ratio
2,B2,226 MFI ratio
3,B3,108 MFI ratio
4,B4,20.3 MFI ratio
5,B5,76.2 MFI ratio
6,B6,8.6 MFI ratio
7,B7,105 MFI ratio
8,B8,157 MFI ratio
9,B9,1.3 MFI ratio
10,B10,21.2 MFI ratio
11,B11,195 MFI ratio
12,B12,67.8 MFI ratio
13,B13,90.4 MFI ratio
14,B14,313 MFI ratio
15,B15,100 MFI ratio
16,B16,89.3 MFI ratio
17,B17,157 MFI ratio
18,B18,178 MFI ratio
19,B19,5.1 MFI ratio
20,B20,218 MFI ratio
21,B21,37.5 MFI ratio
22,B22,149 MFI ratio
23,B23,2.5 MFI ratio
24,B24,1.6 MFI ratio
25,B25,12.3 MFI ratio
26,B26,288 MFI ratio

# Target: T2, TSLP on over-expressing Expi293 cells
# Test: flow cytometry titration on TSLP over-expressing Expi293 cells
# Experimental: as §1
row,Binder,EC50
1,B1,0.37 nM
2,B2,0.12 nM
3,B3,0.28 nM
4,B4,0.18 nM
5,B5,0.5 nM
6,B6,0.73 nM
7,B7,0.43 nM
8,B8,0.18 nM
9,B11,0.45 nM
10,B12,1.4 nM
11,B13,0.66 nM
12,B14,3.37 nM
13,B15,0.11 nM
14,B16,0.31 nM
15,B20,0.43 nM
16,B21,1.35 nM
17,B22,0.73 nM
18,B26,0.14 nM
